Source: US20160272693A1 (ZEALAND PHARMA A S, published 2016)
*1 amine or outer side, *2 acyl side, *3 side chain or, on linkers, in order; H or OH if unused. Bridges are numbered along the chain shown (N, C = ends). [ ]: non-standard residue; d: D form. The star is where a group is joined. C20 diacid = O=C(O)CCCCCCCCCCCCCCCCCCC(=O)*; γGlu = O=C(O)[C@H](CCC(=O)[*:2])N[*:1]; Hyp = O=C(O)[C@@H]1C[C@@H](O)CN1; NMeI = CC[C@H](C)[C@H](NC)C(=O)O; Sar = CNCC(=O)O

T1: human amylin receptor 3 (hAMYR3), hCTR2 co-expressed with human receptor activity modifying protein 3 (hRAMP3) (human, UniProt P30988 25-474; O60896 24-148)
T1 sequence (looked up) 1: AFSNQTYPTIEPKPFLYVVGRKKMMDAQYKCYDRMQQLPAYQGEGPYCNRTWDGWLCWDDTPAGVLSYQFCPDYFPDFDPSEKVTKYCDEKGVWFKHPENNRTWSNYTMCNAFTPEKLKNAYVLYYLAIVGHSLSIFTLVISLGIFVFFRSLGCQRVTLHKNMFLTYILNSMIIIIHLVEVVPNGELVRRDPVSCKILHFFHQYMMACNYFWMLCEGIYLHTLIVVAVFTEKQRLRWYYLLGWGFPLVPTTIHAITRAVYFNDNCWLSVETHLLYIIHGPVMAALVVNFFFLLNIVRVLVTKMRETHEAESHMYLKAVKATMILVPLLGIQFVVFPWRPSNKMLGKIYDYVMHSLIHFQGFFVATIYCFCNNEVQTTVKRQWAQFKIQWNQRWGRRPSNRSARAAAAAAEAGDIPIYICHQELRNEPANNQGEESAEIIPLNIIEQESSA
T1 sequence (looked up) 2: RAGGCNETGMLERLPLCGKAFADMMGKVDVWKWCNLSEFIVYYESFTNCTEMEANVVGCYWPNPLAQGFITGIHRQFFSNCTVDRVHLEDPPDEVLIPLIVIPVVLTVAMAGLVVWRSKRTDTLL


Biological target: T1, human amylin receptor 3 (hAMYR3), hCTR2 …
Assay: cell-based or functional assay

Binder | hAMYR3 EC50 (nM); cAMP induction [nM]
{C20 diacid}-[γGlu]RCGTATCATERLAHFLQRSSF[Sar]A[NMeI]LSSTEVGSNTP-NH2 (disulfide 3-8; SMILES CC[C@H](C)[C@@H](C(=O)N[C@@H](CC(C)C)C(=O)N[C@@H](CO)C(=O)N[C@@H](CO)C(=O)N[C@H](C(=O)N[C@@H](CCC(=O)O)C(=O)N[C@H](C(=O)NCC(=O)N[C@@H](CO)C(=O)N[C@@H](CC(N)=O)C(=O)N[C@H](C(=O)N1CCC[C@H]1C(N)=O)[C@@H](C)O)C(C)C)[C@@H](C)O)N(C)C(=O)[C@H](C)NC(=O)CN(C)C(=O)[C@H](Cc1ccccc1)NC(=O)[C@H](CO)NC(=O)[C@H](CO)NC(=O)[C@H](CCCNC(=N)N)NC(=O)[C@H](CCC(N)=O)NC(=O)[C@H](CC(C)C)NC(=O)[C@H](Cc1ccccc1)NC(=O)[C@H](Cc1c[nH]cn1)NC(=O)[C@H](C)NC(=O)[C@H](CC(C)C)NC(=O)[C@H](CCCNC(=N)N)NC(=O)[C@H](CCC(=O)O)NC(=O)[C@@H](NC(=O)[C@H](C)NC(=O)[C@@H]1CSSC[C@H](NC(=O)[C@H](CCCNC(=N)N)NC(=O)CC[C@H](NC(=O)CCCCCCCCCCCCCCCCCCC(=O)O)C(=O)O)C(=O)NCC(=O)N[C@@H]([C@@H](C)O)C(=O)N[C@@H](C)C(=O)N[C@@H]([C@@H](C)O)C(=O)N1)[C@@H](C)O) [[19CD]-isoGlu-R-C( )-GTAT-C( )-ATERLAHFLQRSSF-Gly(Me)-A-Ile(Me)-LSSTEVGSNTP-NH2 (Compd. 78)] | 0.24
{C20 diacid-γGlu}-RCNTATCATQRLAHFLQRF[Sar]A[NMeI]LSSTEVGSGT[Hyp]-NH2 (disulfide 2-7; SMILES CC[C@H](C)[C@@H](C(=O)N[C@@H](CC(C)C)C(=O)N[C@@H](CO)C(=O)N[C@@H](CO)C(=O)N[C@H](C(=O)N[C@@H](CCC(=O)O)C(=O)N[C@H](C(=O)NCC(=O)N[C@@H](CO)C(=O)NCC(=O)N[C@H](C(=O)N1C[C@H](O)C[C@H]1C(N)=O)[C@@H](C)O)C(C)C)[C@@H](C)O)N(C)C(=O)[C@H](C)NC(=O)CN(C)C(=O)[C@H](Cc1ccccc1)NC(=O)[C@H](CCCNC(=N)N)NC(=O)[C@H](CCC(N)=O)NC(=O)[C@H](CC(C)C)NC(=O)[C@H](Cc1ccccc1)NC(=O)[C@H](Cc1c[nH]cn1)NC(=O)[C@H](C)NC(=O)[C@H](CC(C)C)NC(=O)[C@H](CCCNC(=N)N)NC(=O)[C@H](CCC(N)=O)NC(=O)[C@@H](NC(=O)[C@H](C)NC(=O)[C@@H]1CSSC[C@H](NC(=O)[C@H](CCCNC(=N)N)NC(=O)CC[C@H](NC(=O)CCCCCCCCCCCCCCCCCCC(=O)O)C(=O)O)C(=O)N[C@@H](CC(N)=O)C(=O)N[C@@H]([C@@H](C)O)C(=O)N[C@@H](C)C(=O)N[C@@H]([C@@H](C)O)C(=O)N1)[C@@H](C)O) [[19CD]-isoGlu-R-C( )-NTAT-C( )-ATQRLAHFLQRF-Gly(Me)-A-Ile(Me)-LSSTEVGSGT-Hyp-NH2 (Compd. 79)] | 0.23
{C20 diacid}-[γGlu]RCGTATCATERLAHFLERSSF[Sar]A[NMeI]LSSTEVGSNT[Hyp]-NH2 (disulfide 3-8) [[19CD]-isoGlu-R-C( )-GTAT-C( )-ATERLAHFLERSSF-Gly(Me)-A-Ile(Me)-LSSTEVGSNT-Hyp-NH2 (Compd. 8)] | 0.36
{C20 diacid-γGlu}-RCNTATCATQRLADFLQRSSF[Sar]A[NMeI]LSSTEVGSGTP-NH2 (disulfide 2-7; SMILES CC[C@H](C)[C@@H](C(=O)N[C@@H](CC(C)C)C(=O)N[C@@H](CO)C(=O)N[C@@H](CO)C(=O)N[C@H](C(=O)N[C@@H](CCC(=O)O)C(=O)N[C@H](C(=O)NCC(=O)N[C@@H](CO)C(=O)NCC(=O)N[C@H](C(=O)N1CCC[C@H]1C(N)=O)[C@@H](C)O)C(C)C)[C@@H](C)O)N(C)C(=O)[C@H](C)NC(=O)CN(C)C(=O)[C@H](Cc1ccccc1)NC(=O)[C@H](CO)NC(=O)[C@H](CO)NC(=O)[C@H](CCCNC(=N)N)NC(=O)[C@H](CCC(N)=O)NC(=O)[C@H](CC(C)C)NC(=O)[C@H](Cc1ccccc1)NC(=O)[C@H](CC(=O)O)NC(=O)[C@H](C)NC(=O)[C@H](CC(C)C)NC(=O)[C@H](CCCNC(=N)N)NC(=O)[C@H](CCC(N)=O)NC(=O)[C@@H](NC(=O)[C@H](C)NC(=O)[C@@H]1CSSC[C@H](NC(=O)[C@H](CCCNC(=N)N)NC(=O)CC[C@H](NC(=O)CCCCCCCCCCCCCCCCCCC(=O)O)C(=O)O)C(=O)N[C@@H](CC(N)=O)C(=O)N[C@@H]([C@@H](C)O)C(=O)N[C@@H](C)C(=O)N[C@@H]([C@@H](C)O)C(=O)N1)[C@@H](C)O) [[19CD]-isoGlu-R-C( )-NTAT-C( )-ATQRLADFLQRSSF-Gly(Me)-A-Ile(Me)-LSSTEVGSGTP-NH2 (Compd. 80)] | 0.28
{C20 diacid-γGlu}-RCNTATCATQRLADFLQRSSF[Sar]A[NMeI]LSSTEVGSGT[Hyp]-NH2 (disulfide 2-7; SMILES CC[C@H](C)[C@@H](C(=O)N[C@@H](CC(C)C)C(=O)N[C@@H](CO)C(=O)N[C@@H](CO)C(=O)N[C@H](C(=O)N[C@@H](CCC(=O)O)C(=O)N[C@H](C(=O)NCC(=O)N[C@@H](CO)C(=O)NCC(=O)N[C@H](C(=O)N1C[C@H](O)C[C@H]1C(N)=O)[C@@H](C)O)C(C)C)[C@@H](C)O)N(C)C(=O)[C@H](C)NC(=O)CN(C)C(=O)[C@H](Cc1ccccc1)NC(=O)[C@H](CO)NC(=O)[C@H](CO)NC(=O)[C@H](CCCNC(=N)N)NC(=O)[C@H](CCC(N)=O)NC(=O)[C@H](CC(C)C)NC(=O)[C@H](Cc1ccccc1)NC(=O)[C@H](CC(=O)O)NC(=O)[C@H](C)NC(=O)[C@H](CC(C)C)NC(=O)[C@H](CCCNC(=N)N)NC(=O)[C@H](CCC(N)=O)NC(=O)[C@@H](NC(=O)[C@H](C)NC(=O)[C@@H]1CSSC[C@H](NC(=O)[C@H](CCCNC(=N)N)NC(=O)CC[C@H](NC(=O)CCCCCCCCCCCCCCCCCCC(=O)O)C(=O)O)C(=O)N[C@@H](CC(N)=O)C(=O)N[C@@H]([C@@H](C)O)C(=O)N[C@@H](C)C(=O)N[C@@H]([C@@H](C)O)C(=O)N1)[C@@H](C)O) [[19CD]-isoGlu-R-C( )-NTAT-C( )-ATQRLADFLQRSSF-Gly(Me)-A-Ile(Me)-LSSTEVGSGT-Hyp-NH2 (Compd. 81)] | 0.23
{C20 diacid-γGlu}-RCNTATCATQRLADFLQRSSF[Sar]A[NMeI]LSSTEVGSTTP-NH2 (disulfide 2-7; SMILES CC[C@H](C)[C@@H](C(=O)N[C@@H](CC(C)C)C(=O)N[C@@H](CO)C(=O)N[C@@H](CO)C(=O)N[C@H](C(=O)N[C@@H](CCC(=O)O)C(=O)N[C@H](C(=O)NCC(=O)N[C@@H](CO)C(=O)N[C@H](C(=O)N[C@H](C(=O)N1CCC[C@H]1C(N)=O)[C@@H](C)O)[C@@H](C)O)C(C)C)[C@@H](C)O)N(C)C(=O)[C@H](C)NC(=O)CN(C)C(=O)[C@H](Cc1ccccc1)NC(=O)[C@H](CO)NC(=O)[C@H](CO)NC(=O)[C@H](CCCNC(=N)N)NC(=O)[C@H](CCC(N)=O)NC(=O)[C@H](CC(C)C)NC(=O)[C@H](Cc1ccccc1)NC(=O)[C@H](CC(=O)O)NC(=O)[C@H](C)NC(=O)[C@H](CC(C)C)NC(=O)[C@H](CCCNC(=N)N)NC(=O)[C@H](CCC(N)=O)NC(=O)[C@@H](NC(=O)[C@H](C)NC(=O)[C@@H]1CSSC[C@H](NC(=O)[C@H](CCCNC(=N)N)NC(=O)CC[C@H](NC(=O)CCCCCCCCCCCCCCCCCCC(=O)O)C(=O)O)C(=O)N[C@@H](CC(N)=O)C(=O)N[C@@H]([C@@H](C)O)C(=O)N[C@@H](C)C(=O)N[C@@H]([C@@H](C)O)C(=O)N1)[C@@H](C)O) [[19CD]-isoGlu-R-C( )-NTAT-C( )-ATQRLADFLQRSSF-Gly(Me)-A-Ile(Me)-LSSTEVGSTTP-NH2 (Compd. 82)] | 0.53
